Four molecules from patent publication US20150284431A1 can be followed below.

Assay [1] addresses human melanocortin 1 receptor (human) (UniProt Q01726). The assay is described as follows: competition with Eu-NDP-alpha-MSH, time-resolved fluorescence; 10% ligand loading.
The target is the same in assay [2]. The assay is described as follows: competition with Eu-NDP-alpha-MSH, Eu time-resolved fluorescence, HCT116/hMC1R cells; concentration normalized to the targeting group.

Square brackets hold non-standard residues; d marks the D form. * marks the point of attachment. Butanoyl(4-Ph) = O=C(CCCc1ccccc1)*; Butanoyl(4-ethynyl) = C#CCCCC(=O)*

Sequence of human melanocortin 1 receptor (human) (Q01726 whole entry): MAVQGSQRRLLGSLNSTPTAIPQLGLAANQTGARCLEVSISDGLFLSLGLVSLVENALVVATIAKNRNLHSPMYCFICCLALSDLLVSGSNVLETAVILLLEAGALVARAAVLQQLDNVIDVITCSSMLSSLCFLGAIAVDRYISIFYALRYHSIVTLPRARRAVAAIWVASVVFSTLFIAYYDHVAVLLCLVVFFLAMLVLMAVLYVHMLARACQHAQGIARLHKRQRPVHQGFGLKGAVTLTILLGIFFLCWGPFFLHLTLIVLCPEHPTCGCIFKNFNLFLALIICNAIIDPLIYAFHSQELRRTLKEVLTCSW

B1: 4-targeted crosslinked (XL) micelle (peptide, part only; not given: crosslinked triblock polymer carrier, part only)
peptide: {Butanoyl(4-Ph)}-H[dF]RWGK(Butanoyl(4-ethynyl))-NH2
modifications: also: micelle crosslinked with Fe(III), triblock polymer block lengths not given here
B1 showed a Ki in assay [1] of 2.9 nM.

B2: 4-targeted triblock polymer (peptide, part only; not given: triblock polymer, part only)
peptide: HFRWGK
modifications: N-terminal 4-phenylbutyryl; DPhe at 2; Lys(hex-5-ynoyl) at 6 joined by a 1,2,3-triazole (click reaction) to the azide end of the PEG block of the triblock polymer; C-terminal amide
Turning to B2, the Ki in assay [2] stood at 25.6 nM.

B3: 4-targeted micelles (peptide, part only; not given: triblock polymer carrier, part only)
peptide: HFRWGK
modifications: not fully specified; N-terminal 4-phenylbutyryl; DPhe at 2; Lys(hex-5-ynoyl) at 6 joined by a 1,2,3-triazole to the PEG block of the triblock polymer; C-terminal amide
For B3, in assay [2], the Ki is 11.5 nM.

B4: 4-targeted uncrosslinked (UXL) micelle (peptide, part only; not given: triblock polymer carrier, part only)
peptide: {Butanoyl(4-Ph)}-H[dF]RWGK(Butanoyl(4-ethynyl))-NH2
modifications: also: micelle not crosslinked, triblock polymer block lengths not given here
In assay [1], B4 returned a Ki of 12 nM.
